For assay [1], the target named is biotin-hBA2 binding to hTie-2 (Homo sapiens, UniProt O15123). As to the kind of experiment: ELISA blocking of biotinylated hBA2 binding to hTie-2-His. Format: biochemical. Conditions: 20 pM biotinylated hBA2; average of two separate experiments; read-out: Biotin - hBA2 Average IC50. As for the experimental part:
For this experiment, human Tie-2 conjugated to a histidine tag (hTie-2-His; SEQ ID NO:526) was used in a similar fashion to the hTie-2-mFc described above. Antibody concentrations from 5 nM were serially diluted three-fold. […] An average IC50 value for each antibody was calculated based on two separate experiments.
Background: ELISA stands for enzyme-linked immunosorbent assay.

The subject of assay [2] is Tie-2 phosphorylation (Ang-2-mediated) in HUVECs. As to the kind of experiment: Inhibition of Ang-2-mediated Tie-2 phosphorylation in FOXO1-adenovirus infected HUVECs. The format is cell-based, human. Conditions: antibody 0.5 μg/ml. Summed up:
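FOXO1-adenovirus-infected HUVECs, which secrete Ang-2, received anti-Ang-2 antibodies at 0.5 μg/ml in MCDB131. Percent inhibition was the reduction in phospho-Tie-2/Tie-2 ratio versus control.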

The term IC50 denotes the point on the concentration scale where inhibition reaches its midpoint.

biotin-hBA2 binding to hTie-2, sequence (O15123 with tags, fused parts or gaps): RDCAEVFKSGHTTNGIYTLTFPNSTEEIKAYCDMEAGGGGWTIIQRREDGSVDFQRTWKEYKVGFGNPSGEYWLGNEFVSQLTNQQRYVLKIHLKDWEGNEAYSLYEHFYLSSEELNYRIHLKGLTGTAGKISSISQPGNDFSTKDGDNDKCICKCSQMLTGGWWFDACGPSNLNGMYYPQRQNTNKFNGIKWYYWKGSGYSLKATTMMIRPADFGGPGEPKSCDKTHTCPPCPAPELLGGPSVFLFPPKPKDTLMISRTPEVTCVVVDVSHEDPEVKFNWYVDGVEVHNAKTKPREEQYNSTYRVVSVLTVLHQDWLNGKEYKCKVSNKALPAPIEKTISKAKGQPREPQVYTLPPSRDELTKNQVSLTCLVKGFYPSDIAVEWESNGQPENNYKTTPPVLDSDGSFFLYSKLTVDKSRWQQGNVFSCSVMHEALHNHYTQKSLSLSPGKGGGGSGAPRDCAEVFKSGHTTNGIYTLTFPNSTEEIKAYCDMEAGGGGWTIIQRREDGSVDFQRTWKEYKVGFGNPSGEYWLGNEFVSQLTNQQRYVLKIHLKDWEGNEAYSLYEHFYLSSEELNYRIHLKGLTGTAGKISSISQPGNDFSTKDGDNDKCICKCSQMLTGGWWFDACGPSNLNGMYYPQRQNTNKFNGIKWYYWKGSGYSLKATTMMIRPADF

B1: H1M728N: anti-Ang-2 antibody, HCVR/LCVR SEQ ID NOs 290/298 (antibody, V domains shown)
VH: EVQLVESGGDLVQPGGSLRLSCTASGFTFSKYWMTWVRQAPGRGLEWVANIKEDGNEKYFLDSVKGRFTISRDNAKDLLFLQMNSLRGEDTAVYYCVRDRGIEVAGPFDYWGQGTLVTVSS
VL: DIQMTQSPSTLSASVGDRVTVTCRASQTIINWLAWYQQKPGKAPKLLISKASSLESGVPSRFSGSGSGTEFTLTISSLQPDDFATYYCQQYNRYWTFGQGTMVEIK
Consider B1, for which the IC50 in assay [1] stood at 0.0141 nM. Further, the “Inhibition of Tie-2 phosphorylation” value in assay [2] is recorded as “++ (50-75%)”.

The values are drawn from patent US9926369B2, “Methods for treating hepatocellular cancer by administering an anti-Ang-2 antibody” (Regeneron Pharmaceuticals, Inc., priority 2009, dated 2018).
